In US20150239980A1 (NEOTOPE BOSCIENCES, published 2015):

T1: Recombinant human laminin-α4 (R&D systems) (human, UniProt Q16363-2 826-1816)
T1 construct: also called laminin α-4 chain
T1 sequence (looked up): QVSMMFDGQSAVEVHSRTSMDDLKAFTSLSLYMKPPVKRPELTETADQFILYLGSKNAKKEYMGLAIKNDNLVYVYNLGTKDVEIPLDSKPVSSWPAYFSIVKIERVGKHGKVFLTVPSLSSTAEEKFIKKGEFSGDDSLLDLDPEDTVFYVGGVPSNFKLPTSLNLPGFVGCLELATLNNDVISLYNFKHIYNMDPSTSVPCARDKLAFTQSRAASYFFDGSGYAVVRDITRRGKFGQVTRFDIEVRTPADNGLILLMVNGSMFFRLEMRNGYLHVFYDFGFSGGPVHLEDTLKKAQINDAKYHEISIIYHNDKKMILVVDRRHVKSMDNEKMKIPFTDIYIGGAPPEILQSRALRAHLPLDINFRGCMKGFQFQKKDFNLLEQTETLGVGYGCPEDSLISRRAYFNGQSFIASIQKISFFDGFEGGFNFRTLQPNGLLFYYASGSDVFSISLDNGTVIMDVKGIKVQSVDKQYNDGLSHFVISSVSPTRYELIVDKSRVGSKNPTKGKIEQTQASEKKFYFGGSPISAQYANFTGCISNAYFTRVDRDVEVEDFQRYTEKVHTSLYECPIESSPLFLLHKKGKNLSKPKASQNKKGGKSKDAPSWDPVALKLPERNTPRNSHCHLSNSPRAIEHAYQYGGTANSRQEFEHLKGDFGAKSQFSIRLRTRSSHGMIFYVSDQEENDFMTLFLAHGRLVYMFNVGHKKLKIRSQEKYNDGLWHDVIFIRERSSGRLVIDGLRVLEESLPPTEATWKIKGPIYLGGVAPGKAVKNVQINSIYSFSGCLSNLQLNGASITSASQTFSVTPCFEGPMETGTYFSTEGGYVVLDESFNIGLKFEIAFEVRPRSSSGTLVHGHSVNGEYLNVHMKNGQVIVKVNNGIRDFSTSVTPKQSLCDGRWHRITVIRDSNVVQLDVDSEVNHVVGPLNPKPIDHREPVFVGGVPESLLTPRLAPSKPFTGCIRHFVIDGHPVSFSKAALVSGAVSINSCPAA

T2: Murine MCAM domain 1 (Ig1) with human IgG Fc tag (mouse, UniProt Q8R2Y2 24-131, limits assumed)
T2 construct: domain: domain 1 (Ig1); also called MCAM Fc domain 1; Fc domain 1 alone; not shown: human IgG Fc tag
T2 sequence (looked up): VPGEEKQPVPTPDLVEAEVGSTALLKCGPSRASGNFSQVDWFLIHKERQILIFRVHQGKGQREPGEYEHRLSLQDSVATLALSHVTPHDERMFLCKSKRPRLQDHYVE

T3: human MCAM (melanoma cell adhesion molecule) expressed on transfected CHO cells (human, UniProt P43121 24-646)
T3 construct: also called hMCAM; CD146
T3 chain: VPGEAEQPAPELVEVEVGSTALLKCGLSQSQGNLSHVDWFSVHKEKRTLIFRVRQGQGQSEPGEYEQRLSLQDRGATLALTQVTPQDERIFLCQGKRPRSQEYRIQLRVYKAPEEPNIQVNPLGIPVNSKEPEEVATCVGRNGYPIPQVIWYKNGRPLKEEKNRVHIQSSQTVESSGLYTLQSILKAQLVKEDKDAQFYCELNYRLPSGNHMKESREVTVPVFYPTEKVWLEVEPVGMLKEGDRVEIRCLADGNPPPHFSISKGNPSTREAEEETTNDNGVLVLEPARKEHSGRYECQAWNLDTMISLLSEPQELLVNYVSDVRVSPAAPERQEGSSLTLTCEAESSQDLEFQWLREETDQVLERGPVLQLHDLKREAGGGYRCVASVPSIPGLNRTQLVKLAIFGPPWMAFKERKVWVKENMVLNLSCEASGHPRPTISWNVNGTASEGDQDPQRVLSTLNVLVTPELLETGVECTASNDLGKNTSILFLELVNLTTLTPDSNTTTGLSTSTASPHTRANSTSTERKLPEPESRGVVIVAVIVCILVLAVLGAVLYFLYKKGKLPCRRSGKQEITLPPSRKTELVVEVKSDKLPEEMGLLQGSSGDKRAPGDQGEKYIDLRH

T4: Ig2 domain (mouse, UniProt Q8R2Y2)
T4 construct: isolated domain 2; also called Murine MCAM domain 2 (Ig2) with human IgG Fc tag
T4 sequence (Fc fusion chain, looked up): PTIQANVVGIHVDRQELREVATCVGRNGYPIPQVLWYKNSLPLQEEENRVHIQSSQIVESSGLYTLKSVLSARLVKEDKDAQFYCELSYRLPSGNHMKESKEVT

T5: murine MCAM-Fc fusion protein (mouse, UniProt Q8R2Y2 24-563)
T5 construct: extracellular domain; produced in CHO cells; also called mouse MCAM-Fc; mouse MCAMhFc; not shown: fused to human IgG
T5 sequence (looked up): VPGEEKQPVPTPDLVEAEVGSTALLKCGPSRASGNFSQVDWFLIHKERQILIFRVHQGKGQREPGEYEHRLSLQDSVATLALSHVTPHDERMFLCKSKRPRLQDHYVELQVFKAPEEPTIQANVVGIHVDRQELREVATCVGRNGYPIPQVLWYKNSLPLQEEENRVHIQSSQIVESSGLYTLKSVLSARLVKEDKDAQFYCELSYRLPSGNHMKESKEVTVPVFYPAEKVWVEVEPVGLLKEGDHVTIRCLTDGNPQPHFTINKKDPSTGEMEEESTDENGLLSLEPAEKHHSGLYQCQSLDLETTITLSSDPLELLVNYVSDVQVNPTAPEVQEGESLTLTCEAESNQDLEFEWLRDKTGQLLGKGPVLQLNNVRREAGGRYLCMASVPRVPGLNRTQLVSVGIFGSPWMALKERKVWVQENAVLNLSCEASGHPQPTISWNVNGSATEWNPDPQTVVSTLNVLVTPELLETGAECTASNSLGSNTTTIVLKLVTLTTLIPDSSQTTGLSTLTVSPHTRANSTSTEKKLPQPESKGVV

B1: mouse MCAM expressed on transfected CHO cells (receptor, UniProt Q8R2Y2 24-648, looked up)
chain: VPGEEKQPVPTPDLVEAEVGSTALLKCGPSRASGNFSQVDWFLIHKERQILIFRVHQGKGQREPGEYEHRLSLQDSVATLALSHVTPHDERMFLCKSKRPRLQDHYVELQVFKAPEEPTIQANVVGIHVDRQELREVATCVGRNGYPIPQVLWYKNSLPLQEEENRVHIQSSQIVESSGLYTLKSVLSARLVKEDKDAQFYCELSYRLPSGNHMKESKEVTVPVFYPAEKVWVEVEPVGLLKEGDHVTIRCLTDGNPQPHFTINKKDPSTGEMEEESTDENGLLSLEPAEKHHSGLYQCQSLDLETTITLSSDPLELLVNYVSDVQVNPTAPEVQEGESLTLTCEAESNQDLEFEWLRDKTGQLLGKGPVLQLNNVRREAGGRYLCMASVPRVPGLNRTQLVSVGIFGSPWMALKERKVWVQENAVLNLSCEASGHPQPTISWNVNGSATEWNPDPQTVVSTLNVLVTPELLETGAECTASNSLGSNTTTIVLKLVTLTTLIPDSSQTTGLSTLTVSPHTRANSTSTEKKLPQPESKGVVIVAVIVCTLVLAVLGAALYFFYKKGKLPCGRSGKQEITLPPTRKSEFVVEVKSDKLPEEMALLQGSNGDKRAPGDQGEKYIDLRH
notes: whole, on cells; also called murine MCAM
B2: human MCAM domain 1 (amino acids 19-129), Fc-tagged (Fc fusion, not shown: a dimerising Fc or GST)
chain: PRVAGVPGEAEQPAPELVEVEVGSTALLKCGLSQSQGNLSHVDWFSVHKEKRTLIFRVRQGQGQSEPGEYEQRLSLQDRGATLALTQVTPQDERIFLCQGKRPRSQEYRIQ
notes: also called MCAM Fc domain 1
B3: anti-MCAM monoclonal antibody clone 15 (antibody, V domains shown)
VH: EVRLVESGGGLVQPGKSMKLSCVASGFKFSNYYMSWVRQAPAKGLEWVASISDGGGDTFCRDLVKGRFTISRDNAKSTLYLQMDSLRPEDTATYYCARRGAAMGGVMDAWGQGTSVTVSS
VL: DIVMTQSPSSLAVSAGETVSIHCKSSQSLLYSGTQKNYLAWFQQKPGQSPKLLIFWASTRQSGVPDRFIGRGSGTDFTLTISGVQAEDLAIYYCQQYYDTLTDTFGAGTKLELKR
notes: rat monoclonal raised against murine MCAM-Fc; also called Anti-MCAM Clone 15; anti-mouse MCAM clone 15

Key:
[1] = biological target: T6, recombinant human laminin 511 (Biolamina) (human, UniProt O15230 36-3695; P07942 22-1786; P11047 34-1609); experiment: flow cytometry, mouse MCAM CHO cells, pan-laminin antibody
T6 construct: negative control; also called laminin 10 (α5β1γ1)

[2] = biological target: T6, recombinant human laminin 511 …; experiment: SPR, Biacore T200
[3] = biological target: T1, Recombinant human laminin-α4 (R&D …); experiment: SPR, Biacore T200
[4] = biological target: T2, Murine MCAM domain 1 (Ig1) with human …; experiment: ForteBio Octet Red, domain-hFc on anti-human IgG Fc sensor
Description: (§1) The following protocol was used: ForteBio Domain Mapping Protocol. ForteBio anti-human IgG Fc biosensors were used to immobilize various mouse MCAMhFc domains including full length mouse MCAMhFc protein on to biosensor surface. These sensors were dipped into either clone 15 or 17 MCAM specific antibody for detection of binding to these domains or full length protein. After loading these samples into a black 96 well plate, the Octet Red was programmed as follows: 60 seconds for baseline #1; 180 seconds for loading various domains; 60 seconds for baseline #2; 180 seconds for association of antibody to domain; and 240 seconds for dissociation of antibody from domain.
(§2) 1. Mouse MCAMhFc final concentration @ 5 ug/ml [0466] 2. Antibody clone 15 or 17 @ 5 ug/ml [0467] 3. ForteBio anti-human IgG Fc Capture (AHC) biosensors for kinetics experiments, cat#18-5060 [0468] 4. […] 5. ForteBio Octet Red machine [0470] 6. Fresh tissue culture medium, DMEM with 20% FCS, was used as buffer for dilution

[5] = biological target: T3, human MCAM (melanoma cell adhesion …); experiment: flow cytometry, human MCAM transfected cells mixed with CFSE-labelled untransfected cells
[6] = biological target: B1; experiment: flow cytometry, mouse MCAM transfected cells mixed with CFSE-labelled untransfected cells
Protocol: For the generation of antibodies capable of binding to murine MCAM, MCAM-Fc was generated by fusing the extracellular domain of murine MCAM to human IgG and produced in CHO cells using standard techniques. Lou/M rats were immunized with 100 μg of MCAM-Fc protein in CFA (1:1 volume). Rats were boosted two times at two week intervals with MCAM-Fc protein in incomplete Freund's adjuvant (IFA) (1:1 volume). Hybridomas were generated from immunized rats using standard protocols and clones were selected by Clonepix. CHO cells were transfected with the full length murine MCAM gene and selected for stable expression using neomycin and standard techniques. Parental CHO cells (MCAM negative) were fluorescently labeled with carboxyfluorescein succinimidyl ester (CFSE) using standard techniques and mixed at a 1:1 ratio with unlabeled MCAM transfected CHO cells. Hybridoma supernatants were incubated with this mixture of cells for 30 minutes and binding of potential MCAM specific antibodies was detected with a fluorescently labeled anti-rat secondary antibody (Jackson Immuno) by flow cytometry.

[7] = biological target: T4, Ig2 domain; experiment: ForteBio Octet Red, anti-human IgG Fc (AHC) biosensors loaded with mouse MCAM-hFc proteins (5 ug/ml), dipped into antibody (5 ug/ml) or SP2 media
Description: as §1, §2
(§3) For FIGS. 10A-B, clones 15 and 17 were tested against the following protein samples (all have human IgG Fc tag): Murine MCAM; Human Fc full length protein; Murine MCAM domain 1 (Ig1); Murine MCAM domain 2 (Ig2); and Murine MCAM domain 1 and 2 (Ig1-2A).

[8] = biological target: T5, murine MCAM-Fc fusion protein; experiment: as above
Description: as §1, §2, §3

Binder: B1
binding result [1]: no binding (tested: 10 µg/ml)

Binder: B2
binding result [2]: no binding (tested: 5-175 nM)
binding result [3]: no binding (tested: 5-175 nM)

Binder: B3
binding result [4]: no binding (tested: 5 ug/ml)
binding result [5]: no binding
binding result [6]: binds
binding result [7]: no binding (tested: 5 ug/ml)
binding result [8]: binds
